Source: the supplement of paper PMC12764529
± gives the half width of the 95% confidence interval.

What was measured:
[1] = folding stability dG unfold from trypsin proteolysis; higher = more stable
Procedure, shortened: (§1)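 Unfolding free energy was derived, per protease or combined, by relating Bayesian-fitted K50 values from sequencing counts to a sequence-predicted unfolded-state K50 and a shared folded-state K50. The underlying digests exposed cysteine-free mini-proteins under 80 residues, in a PA-tagged cDNA display construct, to trypsin and chymotrypsin at 11 threefold-diluted concentrations and to a no-protease condition. A filter kept only designs with AlphaFold2 dimer inter-PAE above 15.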

[2] = folding stability dG unfold from chymotrypsin proteolysis; higher = more stable
Procedure, shortened: as §1

[3] = folding stability dG unfold (combined trypsin and chymotrypsin); higher = more stable
Procedure, shortened: as §1

Sequence | folding stability dG unfold [1] [kcal/mol] | folding stability dG unfold [2] [kcal/mol] | folding stability dG unfold [3] [kcal/mol]
SALEIEIEQDEDGNMRISVYLPGWKPIEEQPVPPGDGMKTFIIKLPDRVLMITFTNGGIEPNPVPLNDISAG [r14_403_TrROS] | 2.44 ± 0.17 | 2.69 ± 0.092 | 2.51 ± 0.23
SMKIPVKTNDPEALKELLNKIKEILEKAKEKGYEIFPIPIILDNGKEIIFPIDPNDKIEEVIKKIEEALKSA [r9_127_TrMRF] | 2.7 ± 0.15 | 1.38 ± 0.097 | 2.02 ± 0.23
SAGPVVVDPNGKLLPLKVKAVFVIDPELLEEKAKESDNSLEKAIRDLVKELEAELKAKGYDVEVEGIGSAGG [r19_305_TrMRF] | 1.12 ± 0.067 | 1.97 ± 0.049 | 1.68 ± 0.061
SAGGSAGKIEIPLPELGEVREEPVPDTVRIEVRFPDGRVLEATVLKDDTIEIREKGTGKLVATLPASAGGSA [r15_656_TrMRF] | 1.44 ± 0.058 | 1.39 ± 0.043 | 1.44 ± 0.12
SAGGEIKIKKSKDGKTLYIEIKIKAGEKVKLKLTITLPNGKKAEITSVEIIEKNGELYIKVEIKIKDSAGGS [r16_499_TrROS_Hall] | 3.92 ± 0.28 | 4.67 ± 0.4 | 4.42 ± 0.42
SAGPPKKVEIPVRYPFDGWEIMIQIDPKDPKIEIHVHNPEHRERAREYARTIARIFQENGIPVEIEPWSAGG [r19_354_TrROS] | 1.48 ± 0.057 | 1.91 ± 0.095 | 1.73 ± 0.21
SAPSPSVPLDPVTTETVLVKDPEKGEEITLEILTDANSDEVLVRITYPDGSEVVLRLKKEEVEKVIEALSAG [r14_240_JUSTAS] | 4 ± 0.37 | 3.08 ± 0.11 | 3.41 ± 0.12
SAGGSAGGSGVSSVRPVALPGGRVLVLEYFSSTGKVRVTTLTVGDGRPARAESVTPVTPESILSAGGSAGGS [r12_961_JUSTAS] | 0.598 ± 0.052 | 0.275 ± 0.098 | 0.495 ± 0.09
SAGGSAGGSAGGIEDMAEKNPDWKIVEPIEIEIPYYNPDGKWYEVEYTIFVIVPPGDEISAGGSAGGSAGGS [r10_0_TrROS] | 1.46 ± 0.16 | 2.12 ± 0.075 | 1.79 ± 0.23
SAGGSAGGSGSMSTPVTEEITLTLTRTTEDGTEVVITIKVKVVKDPTSDVVTVTEVLSETVEPSAGGSAGGS [r12_358_JUSTAS] | 2.18 ± 0.051 | 2.54 ± 0.039 | 2.37 ± 0.099
SAGGSAGGSAPDIKIEKIGENTYKITLNFEFTFEDGSKVKVKITFTFTVNFPEDDPLLKELFSAGGSAGGSA [r18_215_TrMRF] | 2.71 ± 0.061 | 3.213 ± 0.028 | 3.02 ± 0.11
SRDLLKELAEKFPNFEPKGVQEEPTDNGGVKLQVIARHPKNGRYYKIEITVPPDGKIEDIEIEPVPLDDLSA [r9_274_TrROS] | 2.3 ± 0.045 | 2.823 ± 0.021 | 2.61 ± 0.09
SAGGSAGGIKAPDGQEYHIILFPITIPMEQKVERPMPDGDPRPETRTVSIKIPIWFAIPPGQKISAGGSAGG [r6_526_TrROS] | 1.14 ± 0.029 | 1.5 ± 0.12 | 1.29 ± 0.13
SASVTTLTFTVTYPGGETETFTVTVPNLTEEEAKALAEKLAEEIQEKSKKPGVKVEVSITRYPADDPALSAG [r14_207_JUSTAS] | 3.9 ± 0.17 | 4.13 ± 0.21 | 4.2 ± 0.18
SAGGSAGGSKMRERTITFPNAKITIWYHPDGNVRMEVMNPGNGKPKREIWMKPGDIEEILKKFSAGGSAGGS [r20_129_TrROS] | 1.62 ± 0.043 | 2.58 ± 0.038 | 2.32 ± 0.049
SAGGKMVKIKIVVEVKVEEEVKEGEKVETFKVELTIELPEEEVEKLKAELEKLFPDVKIVEIEKVEPSAGGS [r8_490_TrROS_Hall] | 3.39 ± 0.24 | 3.86 ± 0.47 | 3.7 ± 0.34
SAPILPDAVVSEKPSVSQLPGNSTLVTTTYTYPGGPTITKTTTYTVDPSTGKWTTTSSTTLTPEAAAAASAG [r14_842_JUSTAS] | 0.377 ± 0.041 | 0.977 ± 0.075 | 0.754 ± 0.066
SAGGSAGGSPPMKTYEHWIRFDSPEQAVEEVANHIQDHFGLEIKSVEIEYDPENGWVRVKIVISAGGSAGGS [r12_265_TrROS] | 2.71 ± 0.075 | 3.449 ± 0.029 | 3.12 ± 0.14
SAGPVTIPIFYRVPPGEPMTPEAKEFAIELAKYIARLFPPGYKIEIDSIEWERHPNYYYFRVTIEIEPPSAG [r5_121_TrROS] | 3.64 ± 0.16 | 3.8 ± 0.085 | 3.62 ± 0.27
SATPYTFTLPDGYVIPAYKLPDGTVRVTAQYYDPVDRKPVGTYEATADPTDGTIELTFPNGDKATITLPDSA [r9_56_TrMRF] | 0.859 ± 0.051 | 1.01 ± 0.1 | 1.01 ± 0.09
SAGGPLTLEDLKNMPPGEKLEFTFGGYTYEVEIYKNDNGPPYITVKQRDPHDGEPVEEKRVPADDIVSAGGS [r16_763_TrROS] | 0.956 ± 0.032 | 1.92 ± 0.026 | 1.58 ± 0.058

Sequence | folding stability dG unfold [1] [kcal/mol] | folding stability dG unfold [2] [kcal/mol] | folding stability dG unfold [3] [kcal/mol]
SAGGSAGGGNWERVEFTFTKRVYDPKNGKPMKDVMVEIDVYRDPNEGALEIEIEMPPGFDYIMISAGGSAGG [r6_206_TrROS] | 2.79 ± 0.28 | 4.23 ± 0.23 | 3.93 ± 0.29
SAGGSAGGSASEIMDEFPNLEIDNVNPDHGMMIIKWPDGWYWRVNVGNGEIEPVSPEDLEDMSAGGSAGGSA [r18_381_TrROS] | 0.447 ± 0.037 | 0.983 ± 0.083 | 0.828 ± 0.18
SMIVKSEPVKDPNSDLTTTPVTITLPVREYDPSLGVTRERLVTINGTVITTLLEKHPDGSVISTVDVLPASA [r9_1058_JUSTAS] | -0.177 ± 0.026 | 0.69 ± 0.039 | 0.427 ± 0.049
SATKTITIELPVDVPVEVLKEFFEALGFTEMEFYETEDPRTLVVRFTVPGDPVTVIVIVRPLPVPPDEPLSA [r9_1090_TrMRF] | 3.29 ± 0.16 | 3.57 ± 0.063 | 3.55 ± 0.12
SAGGSAGGLEEELKLAKENPGEFEGVTVKLESVIEVTTTDPTTGKPTTKLVRVESEITFPPGLKSAGGSAGG [r6_560_JUSTAS] | 0.2 ± 0.13 | 1.05 ± 0.1 | 0.834 ± 0.2
SAGGSAGGMNPTVTPVEVDVGDKPLTVFLFGDGTALVLFPDGGLAGAPVGTPDDRPVNLAIIGPSAGGSAGG [r6_239_TrMRF] | 0.887 ± 0.037 | 0.955 ± 0.053 | 0.927 ± 0.073
SAMKITEITYDKETNTITITVEIKLPPGVKKIKLKLFIDGAEIEEITMEVDEETGTVRITLKIRIPKDASAG [r14_244_TrROS_Hall] | 4.9 ± 0.88 | 6.06 ± 0.78 | > 6
SAGGSVKQIALRIARDMGYPNVKVEEIPIEKTPNGWVQIPITVEHPKDGKPIGPFQIHIRPGDPIVSAGGSA [r2_137_TrROS] | 1.17 ± 0.24 | 0.602 ± 0.27 | 0.731 ± 0.29
SAGGMKIGVLLPKSIPPEKAEEFLKKLNPDLEVEYRPVEPGSLKDIPPEIEVIVLPADDDFALALVKPSAGG [r13_649_TrMRF] | 0.323 ± 0.044 | -0.401 ± 0.12 | 0.00463 ± 0.11
SAGSVTVTETKTEGDKETITMTRPETGETVEEKITKKNGKVKVTKTYYSPSGVKLGSSEKVLSESELLLSAG [r5_308_JUSTAS] | -0.0129 ± 0.18 | -0.195 ± 0.33 | -0.0136 ± 0.26
SAGGSAKKYIVLAKIKEVKVTKTYKTKNGKKVKVTVKVEIKVEPVKVFKIKKDKNGNWKIEPGEVLSAGGSA [r15_162_TrROS_Hall] | 2.96 ± 0.15 | 2.88 ± 0.14 | 3.14 ± 0.28
SAGGIEDIANEFGIEDVEIEEINPEYNEVTVTFRFRGPNGNPFTWTYTIEVPPPPPPEPKMDPEDNNNSAGG [r13_608_TrROS] | 1.06 ± 0.12 | 2.44 ± 0.16 | 1.81 ± 0.32
SAGMKTLEKTGSAAKIEEAIAAGKSLEEVFETAGKDGGTSRTLTEPNRTLTFSGETSKPGVATLTTIPESAG [r5_343_JUSTAS] | -0.662 ± 0.55 | 0.279 ± 0.18 | -0.0165 ± 0.15
SEEELENLPNVVRLELEVEIDGVRVRIETEFRLNEDGSLEVRTRIEVEPLPPPVEVVLDENGELVEVRVESA [r9_456_TrROS_Hall] | 2.81 ± 0.08 | 3.42 ± 0.13 | 3.12 ± 0.14
SPKELEFKHPDNGMEVKIRLDPNQGRIEIEVRPPNGPPVKMDMEVTDDRIKIDIYYPGGRPMMQLEFPLPSA [r9_665_TrROS] | 2.92 ± 0.15 | 2.79 ± 0.074 | 2.88 ± 0.085
SAGPKVKLIKAEFFPDGRLVVYAEVESSNGEPAFAVGVFDPRNPNKAHVKVYNPSTGKVSEFEVTVTPGSAG [r5_345_TrMRF] | 2.57 ± 0.054 | 3.24 ± 0.042 | 3 ± 0.035
SAGGSAGGSKLKIPIIRKFKPDEPLPTAEDVKAILEELGLDIKEVKVTYFPEYGYAIAEVEVSSAGGSAGGS [r12_1052_TrMRF] | 1.57 ± 0.033 | 1.24 ± 0.039 | 1.41 ± 0.067
SSSAEIRAYRFPDFWLVEIDLRDGDKLVGTAVFPNDGSVSLEEVAEAFRAAHPDFDVEISAIEPVPPPPPSA [r9_364_TrMRF] | 1.71 ± 0.064 | 2.08 ± 0.063 | 2.01 ± 0.12
SAGEEKEAKALAEQYAAEFAPKLGMKYEVPEVKVEKDEKTGKITVTVTVKFTFPEPRTVTKKFTIVVPKSAG [r5_381_JUSTAS] | 2.4 ± 0.14 | 1.61 ± 0.11 | 2.14 ± 0.27
SAGGSAGGSAMVVRGEDLTPEALLELLEENPEEVTLETKDHIATVKFNPETGELEITSVDDISAGGSAGGSA [r18_75_TrMRF] | 1.38 ± 0.12 | 1.73 ± 0.099 | 1.6 ± 0.13
SMKDATSTSIGSRTYTYPNTDPSVSPEELKEKVIEEIKKEPELKAVEITVEVDPSTGTVTITINLTKLVKSA [r9_1001_JUSTAS] | 1.14 ± 0.021 | 1.76 ± 0.054 | 1.5 ± 0.077
